Test system: K562 CRISPRi cells
Experiment: Constant region variant library pooled growth screen, K562
Type: cell-based, human
Conditions: sgRNA constant region variants
In short: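 Relative activity expresses each targeting sequence:constant region pair's phenotype over that of the unmodified constant region. Pooled growth screen ran in K562 CRISPRi cells in duplicate spinner-flask replicates, with puromycin selection and 4–8 days' growth at >2000× coverage; library paired variants with 36 targeting sequences.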

[1] = activity relative to the original, un-modified constant region cr995
[2] = relative to the original, un-modified constant region cr995 (= 1)

Molecule | Mean relative activity [1] | Mean relative activity [2]
cr540 (nucleic acid, listed as DNA, chemistry not fully specified) guide: GTTTAAGAGCTAAGCTGGAAACAGCATAGCAACTTTAAATAATGCTAGTCAGTTATCAACTTGAAAAAGTGGCACCGAGTCGGTGCT | −0.0122 | –
cr884 (nucleic acid, listed as DNA, chemistry not fully specified) guide: GTTTAAGAGCTAAGCTGGAAACAGCATAGCAAGTTTAAATAAGGCTAGTCCGTTATCACCTAGAAATAGGGTCACCGAGTCGGTGAT | – | 1.027
cr434 (nucleic acid, listed as DNA, chemistry not fully specified) guide: GTTTAAGAGCTAAGCTGGAAACAGCATAGCAAGTTTAAATAAGGCTAGTCCGTTATCAACTTCATAAAGTGGCACCGAGTCGGTGCT | 1.027 | –
cr797 (nucleic acid, listed as DNA, chemistry not fully specified) guide: GTTTAAGAGCTAAGCTGGAAACAGCATAGCAAGTTTAAATAAGGCTAGTCCGTGATCAACTTGAAAAAGTGGCACCGAGTCGGTGCT | 1.027 | –
cr444 (nucleic acid, listed as DNA, chemistry not fully specified) guide: GTTTAAGAGCTAAGCTGGAAACAGCATAGCAAGTTTAAATAAGGCTAGTCCGTTATCAACTTGACAAAGTGGCACCGAGTCGGTGCT | – | 1.023
cr140 (nucleic acid, listed as DNA, chemistry not fully specified) guide: GTTTAAGAGCTAAGCTGGAAACAGCATAGCAAGTTTAAATAAGGCTAGTCCGTTATCAATCTGAAAAGATGGCACCGAGTCGGTGCT | – | 1.023
cr565 (nucleic acid, listed as DNA, chemistry not fully specified) guide: GTTTAAGAGCTAAGCTGGAAACAGCATAGCAAGTTTAAATAAGGCTAGTCCGTTATCAACGCGAAAGCGTGGCACCGAGTCGGTGCT | 1.085 | –
cr710 (nucleic acid, listed as DNA, chemistry not fully specified) guide: GTTTAAGAGCTAAGCTGGAAACAGCATAGCAAGTTTAAATAAGGCTAGTCCGTTATCAACTTGAAAAAGTGGCAGCGAGTCGCTGCT | – | 1.021
cr790 (nucleic acid, listed as DNA, chemistry not fully specified) guide: GTTTAAGAGCTAAGCTGGAAACAGCATAGCAACTTTAAATAAGGCTAGTCCGTTATCAACTTGAAAAAGTGGCACCAAGTTGGTGCT | −0.01697 | –
cr610 (nucleic acid, listed as DNA, chemistry not fully specified) guide: GTTTAAGAGCTAAGCTGGAAACAGCATAGCAAGTTTAAATAAGGCTAGTCCGTTATCAAGATGAAAATCTGACACCGAGTCGGTGTT | – | 1.027
cr978 (nucleic acid, listed as DNA, chemistry not fully specified) guide: GTTTAAGAGCTAAGCTGGAAACAGCATAGCAAGTTTAAATAAGGCTAGTCCGTTATCAACTTGAAAAAGTGGAAACGAGTCGTTTCT | – | 1.021
cr929 (nucleic acid, listed as DNA, chemistry not fully specified) guide: GTTTAAGAGCTAAGCTGGAAACAGCATAGCAAGTTTAAATAAGGCTAGTCCGTTATCAACTTGAAAAAGTGTCACCGAGTCGGTGCT | – | 1.025
cr896 (nucleic acid, listed as DNA, chemistry not fully specified) guide: GTTTAAGAGCTAAGCTGGAAACAGCATAGCAAGTTTAAATAAGGCTAGTCCGTTATCAACTTGAAAAAGTGGACCCGAGTCGGGTCT | – | 1.025
cr334 (nucleic acid, listed as DNA, chemistry not fully specified) guide: GTTTAAGAGCTAAGCTGGAAACAGCATAGCAAGTTTAAATAAGGCTAGTCCGTTATCAAGTGGAAACACTGGCACCAAGTTGGTGCT | – | 1.025
cr858 (nucleic acid, listed as DNA, chemistry not fully specified) guide: GTTTAAGAGCTAAGCTGGAGACAGCATAGCAAGTTTAAATAAGGCTAGTCCGTTATCAACTTGAAAAAGTGGCACCGAGTCGGTGCT | – | 1.025
cr600 (nucleic acid, listed as DNA, chemistry not fully specified) guide: GTTTAAGAGCTAAGCTGGAAACAGCATAGCAAGTTTAAATAAGGCTAGTCCGTTATCAAGTTGAGAAACTGGCACCGAGTCGGTGCT | – | 1.021
cr345 (nucleic acid, listed as DNA, chemistry not fully specified) guide: GTTTAAGAGCTAAGCTGGAACCAGCATAGCAAGTTTAAATAAGGCTAGTCCGTTATCAACTTGAAAAAGTGGCACCGAGTCGGTGCT | – | 1.021
cr551 (nucleic acid, listed as DNA, chemistry not fully specified) guide: GTTTAAGAGCTAAGCTGGAAACAGCTTAGCAAGTTTAAATAAGGCTAGTCCGTTATCAACTTGAAAAAGTGGCACCGAGTCGGTGCT | −0.109 | –
cr412 (nucleic acid, listed as DNA, chemistry not fully specified) guide: GTTTAAGAGCTAAGCTGGAAACAGCATAGCAAGTTTAAATAAGGCTAGTCCGTTATCAAGTTGAAAAACTGGCACCGAGTCGGTGCT | – | 1.025
cr990 (nucleic acid, listed as DNA, chemistry not fully specified) guide: GTTTAAGAGCTAAGCTGGAAACAGCATATCAAGCTTAAATAAGGCTAGTCCGTTATGAACTTGAAAAAGTGGCACCGAGTCGGTGCT | −0.0163 | –
cr934 (nucleic acid, listed as DNA, chemistry not fully specified) guide: GTTTAAGAGCTAAGCTGGAAACAGCATAGCAAGTTTAAATAAGGCTTGTCCGTTACCAACTTGAAAAAGTGGCACCGATTCGGTGCT | – | 1.024
cr118 (nucleic acid, listed as DNA, chemistry not fully specified) guide: GTTTAAGAGCTAAGCTGGAAACGGCATAGCAAGTTTAAATAAGGCTAGTCCGTTATCAACTTGAAAAAGTGGCACCGAGTCGGTGCT | – | 1.025

Reference: US20220259593A1, “CONTROL OF MAMMALIAN GENE DOSAGE USING CRISPR” (The Regents of the University of California, priority 2019, published 2022)
